T1: hARTC1 in the presence of hARTC3 (hARTC1–hARTC3 heterodimer) (Homo sapiens, UniProt P52961)
T1 construct: gene ART1; GST-hARTC1 (N23-C295) with His-hARTC3 (N27-C362), both from E. coli; heterodimer by size exclusion; with Ecto-ADP-ribosyltransferase 3
T1 sequence (P52961 23-295): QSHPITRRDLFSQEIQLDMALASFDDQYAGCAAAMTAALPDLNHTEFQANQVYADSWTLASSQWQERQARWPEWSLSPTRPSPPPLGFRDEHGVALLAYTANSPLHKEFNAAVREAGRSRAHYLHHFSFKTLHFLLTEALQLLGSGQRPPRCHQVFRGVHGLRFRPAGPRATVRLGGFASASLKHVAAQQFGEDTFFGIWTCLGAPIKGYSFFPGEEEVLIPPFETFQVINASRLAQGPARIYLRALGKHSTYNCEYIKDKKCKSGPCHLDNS
T1 sequence (Q13508 27-362 partner): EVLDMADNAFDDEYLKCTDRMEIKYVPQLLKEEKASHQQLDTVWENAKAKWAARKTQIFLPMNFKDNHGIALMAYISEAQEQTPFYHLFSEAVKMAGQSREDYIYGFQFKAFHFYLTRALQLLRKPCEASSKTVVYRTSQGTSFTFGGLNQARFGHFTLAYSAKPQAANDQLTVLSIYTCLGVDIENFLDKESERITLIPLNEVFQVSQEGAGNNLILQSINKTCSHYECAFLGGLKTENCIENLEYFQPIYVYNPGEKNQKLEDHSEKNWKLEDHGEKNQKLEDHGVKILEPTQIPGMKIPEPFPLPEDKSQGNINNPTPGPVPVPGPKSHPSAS

T2: His-hARTC3 (N27–C362) (human, UniProt Q13508 27-362)
T2 construct: human ARTC3 residues 27-362, printed as N27–C362 (N and C read as the N- and C-terminal limits), in pET-15b; also called His-ARTC3 (N27–C362); source: E. coli BL21 (Codon Plus), purified (Ni-chelating Sepharose); not shown: His tag, N-terminal, kept
T2 sequence (looked up): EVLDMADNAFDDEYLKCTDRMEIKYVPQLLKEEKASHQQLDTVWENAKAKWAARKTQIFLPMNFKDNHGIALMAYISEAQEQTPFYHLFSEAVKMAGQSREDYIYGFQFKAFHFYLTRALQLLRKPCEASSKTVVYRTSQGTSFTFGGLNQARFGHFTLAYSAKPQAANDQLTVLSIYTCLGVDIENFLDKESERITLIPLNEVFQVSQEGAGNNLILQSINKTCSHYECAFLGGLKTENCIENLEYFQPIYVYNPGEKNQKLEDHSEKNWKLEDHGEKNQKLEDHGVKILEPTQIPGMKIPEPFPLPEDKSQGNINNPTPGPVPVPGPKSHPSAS


Key:
[1] = molecular target: T1, hARTC1 in the presence of hARTC3 (hARTC1–hARTC3 heterodimer); assay: etheno-NAD+ fluorescence kinetics; assay type: biochemical; details: 20 mM Tris-HCl pH 8.0, 37°C; hARTC1 with hARTC3 added
[2] = substrate: NC(=O)c1ccc[n+]([C@@H]2O[C@H](COP(=O)(O)OP(=O)(O)OC[C@H]3O[C@@H](n4cnc5c4ncn4ccnc54)[C@H](O)[C@@H]3O)[C@@H](O)[C@H]2O)c1; assay: etheno-NAD+ NAD+ hydrolase fluorescence assay, Lineweaver-Burk; assay type: biochemical, Homo sapiens; details: 20 mM Tris-HCl pH 8.0, 37°C, 60 min, etheno-NAD+ 0-10 μM, enzyme 10 μg/ml
His-hARTC3 (N27–C362) = molecular target: T2, His-hARTC3 (N27–C362); assay: pull-down; GST-hARTC1 (N23–C295) and His-hARTC3 (N27–C362) purified from E. coli, incubated with Glutathione Sepharose 4B and Ni-chelating Sepharose, 4°C, 2 h; washes in NETN 100; blots with anti-His and anti-GST; details: both partners purified

Molecule | etheno-NAD+ fluorescence kinetics [1] | Km [2] | binding result (His-hARTC3 (N27–C362))
NC(=O)c1ccc[n+]([C@@H]2O[C@H](COP(=O)(O)OP(=O)(O)OC[C@H]3O[C@@H](n4cnc5c4ncn4ccnc54)[C@H](O)[C@@H]3O)[C@@H](O)[C@H]2O)c1 [etheno-NAD^+] | Enzymatic kinetics for etheno-NAD^+ of hARTC1 in the presence (green) or absence (red) |  | 
GST-hARTC1 (N23–C295) (domain or fragment, human, UniProt P52961 23-295, looked up, human ARTC1 residues 23-295, printed as N23–C295 (N and C read as the N- and C-terminal limits), in pGEX-4T-1; also called GST-ARTC1 (N23–C295); source: E. coli BL21 (Codon Plus), purified (Glutathione Sepharose 4B); not shown: GST, N-terminal, kept) QSHPITRRDLFSQEIQLDMALASFDDQYAGCAAAMTAALPDLNHTEFQANQVYADSWTLASSQWQERQARWPEWSLSPTRPSPPPLGFRDEHGVALLAYTANSPLHKEFNAAVREAGRSRAHYLHHFSFKTLHFLLTEALQLLGSGQRPPRCHQVFRGVHGLRFRPAGPRATVRLGGFASASLKHVAAQQFGEDTFFGIWTCLGAPIKGYSFFPGEEEVLIPPFETFQVINASRLAQGPARIYLRALGKHSTYNCEYIKDKKCKSGPCHLDNS |  | 11.59 ± 1.57 µM | binds
hARTC5 (GST-ARTC5 (N23–C291)) (Homo sapiens) (protein) VPILPLGLAPDTFDDTYVGCAEEMEEKAAPLLKEEMAHHALLRESWEAAQETWEDKRRGLTLPPGFKAQNGIAIMVYTNSSNTLYWELNQAVRTGGGSRELYMRHFPFKALHFYLIRALQLLRGSGGCSRGPGEVVFRGVGSLRFEPKRLGDSVRLGQFASSSLDKAVAHRFGNATLFSLTTCFGAPIQAFSVFPKEREVLIPPHEVFLVTRFSQDGAQSLVTLWSYNQTCSHFNCAYLGGEKRRGCVSAPGALGTGDLHMTKRHLQQP |  | 56.78 ± 11.90 µM | 

Reference: article PMC10928986, “ARTC1-mediated VAPB ADP-ribosylation regulates calcium homeostasis” (Journal of Molecular Cell Biology, 2023)
